In patent publication US20210115458:
Where two headings read alike, the source gives them in different places.

Tested on: T1, JUL1 (bead-immobilized for Kd assay) (Arabidopsis thaliana)
T1 sequence: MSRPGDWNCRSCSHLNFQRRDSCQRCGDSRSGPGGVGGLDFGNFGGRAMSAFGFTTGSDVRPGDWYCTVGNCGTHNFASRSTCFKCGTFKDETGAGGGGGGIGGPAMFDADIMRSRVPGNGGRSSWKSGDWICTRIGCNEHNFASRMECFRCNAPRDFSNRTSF
Details: FAM-RNA bead fluorescence assay

In the case of SMXL5 5' UTR G-quadruplex-forming motif, the Kd (with potassium (folded G4)) is reported as 230 nM and the Kd (without potassium) is reported as 130 nM.
